The text below walks through data of patent US20090209457A1, “TREATMENT OF ANTI-ERYTHROPOIETIN ANTIBODY-MEDIATED DISORDERS WITH SYNTHETIC PEPTIDE-BASED EPO RECEPTOR AGONISTS” (Affymax, Inc., priority 2008, published 2009).

Like-named read-outs stand apart in the source and are kept apart here. Bridge positions count the residues as written; N and C are the ends. Square brackets hold non-standard residues; d marks the D form. Ends that are not written are not given here. 1Nal = N[C@@H](Cc1cccc2ccccc12)C(=O)O; Sar = CNCC(=O)O

Test [1] concerns human, bone marrow derived CD34+ cells. Briefly: C/BFU-e assay (erythroid colonies). It is filed as cell-based. The following applies: 14 days, 90% of maximum colonies relative to EPO control. As for the experimental part: EPO-R signaling stimulates the differentiation of bone marrow stem cells into proliferating red blood cell precursors. This assay measures the ability of test peptides to stimulate the proliferation and differentiation of red blood cell precursors from primary human bone marrow pluripotent stem cells.
For this assay, serial dilutions of test peptide are made in IMDM medium (Gibco) supplemented with 10% FBS (Hyclone). These serial dilutions, or positive control EPO peptide, are then added to methylcellulose to give a final volume of 1.5 mL. The methylcellulose and peptide mixture is then vortexed thoroughly. Aliquots (100,000 cells/mL) of human, bone marrow derived CD34+ cells (Poietics/Cambrex) are thawed. The thawed cells are gently added to 0.1 mL of 1 mg/ml DNAse (Stem Cells) in a 50 mL tube. Next, 40-50 mL IMDM medium is added gently to cells: the medium is added drop by drop along the side of the 50 mL tube for the first 10 mL, and then the remaining volume of medium is slowly dispensed along the side of the tube. The cells are then spun at 900 rpm for 20 min, and the media removed carefully by gentle aspiration. The cells are resuspended in 1 ml of IMDM medium and the cell density per mL is counted on hemacytometer slide (10 μL aliquot of cell suspension on slide, and cell density is the average count×10,000 cells/ml). The cells are then diluted in IMDM medium to a cell density of 15,000 cells/mL. A 100 μL of diluted cells is then added to each 1.5 mL methyl cellulose plus peptide sample (final cell concentration in assay media is 1000 cells/mL), and the mixture is vortexed. Allow the bubbles in the mixture to disappear, and then aspirate 1 mL using blunt-end needle. Add 0.25 mL aspirated mixture from each sample into each of 4 wells of a 24-well plate (Falcon brand). Incubate the plated mixtures at 37° C. under 5% CO2 in a humid incubator for 14 days. Score for the presence of erythroid colonies using a phase microscope (5×-10× objective, final magnification of 100×). The concentration of test peptide at which the number of formed colonies is 90% of maximum, relative to that observed with the EPO positive control, is recorded as the EC90 [See Table 2: C/BFU-e EC90].
For this assay, serial dilutions of test peptide are made in IMDM medium (Gibco) supplemented with 10% FBS (Hyclone). These serial dilutions, or positive control EPO peptide, are then added to methylcellulose to give a final volume of 1.5mL. The methylcellulose and peptide mixture is then vortexed thoroughly. […] The cells are resuspended in 1 ml of IMDM medium and the cell density per mL is counted on hemacytometer slide (10 μL aliquot of cell suspension on slide, and cell density is the average count×10,000 cells/ml). […]

The target of test [2] is T1, chimeric receptor comprising the extra-cellular portion of the human EPO receptor to the intra-cellular … (human, UniProt P19235 25-250; Q99062 651-836, limits assumed).
T1 sequence (looked up): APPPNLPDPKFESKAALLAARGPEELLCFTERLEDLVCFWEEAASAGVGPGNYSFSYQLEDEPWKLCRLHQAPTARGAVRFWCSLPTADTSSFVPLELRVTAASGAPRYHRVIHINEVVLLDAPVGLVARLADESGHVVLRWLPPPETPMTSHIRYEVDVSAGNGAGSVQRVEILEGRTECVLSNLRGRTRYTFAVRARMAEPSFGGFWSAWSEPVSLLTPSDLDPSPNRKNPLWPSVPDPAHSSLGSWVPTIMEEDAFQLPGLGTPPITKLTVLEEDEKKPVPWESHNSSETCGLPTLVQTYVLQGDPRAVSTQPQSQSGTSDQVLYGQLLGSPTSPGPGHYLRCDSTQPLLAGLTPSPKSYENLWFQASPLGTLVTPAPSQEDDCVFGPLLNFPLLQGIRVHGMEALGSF
As to the kind of experiment: cell-based or functional assay.

The target in test [3] is T2, human EPO-R on cells (BaF3/Gal4/Elk/EPOR cells; human bone marrow derived CD34+ cells) (human, UniProt P19235 25-508).
T2 sequence (looked up): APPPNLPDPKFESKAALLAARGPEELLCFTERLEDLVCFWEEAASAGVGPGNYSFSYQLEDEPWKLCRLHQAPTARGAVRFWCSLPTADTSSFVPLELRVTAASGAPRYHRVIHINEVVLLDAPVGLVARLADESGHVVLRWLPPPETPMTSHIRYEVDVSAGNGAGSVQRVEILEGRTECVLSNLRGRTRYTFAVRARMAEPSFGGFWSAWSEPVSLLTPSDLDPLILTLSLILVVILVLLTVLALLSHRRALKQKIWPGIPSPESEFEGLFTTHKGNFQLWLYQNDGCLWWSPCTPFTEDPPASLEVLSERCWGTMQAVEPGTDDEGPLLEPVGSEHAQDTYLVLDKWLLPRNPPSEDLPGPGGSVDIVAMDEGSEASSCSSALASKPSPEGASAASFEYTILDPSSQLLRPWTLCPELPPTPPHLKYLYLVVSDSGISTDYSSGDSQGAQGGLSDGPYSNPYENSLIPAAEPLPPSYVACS
As to the kind of experiment: cell-based or functional assay.

Test [4] addresses T1, chimeric receptor comprising the …. Briefly: cell-based or functional assay. The source holds these as a separate data set.
For test [5], the target named is T2, human EPO-R on cells …. Briefly: cell-based or functional assay. The source holds these as a separate data set.
The target in test [6] is T3, Recombinant Human EPO R/Fc Chimera (R&D Systems, catalog number 963-ER) (human, UniProt P19235 25-250).
T3 construct: extracellular domain; Bought reagent; also called recombinant EPOr extracellular domain fused to the Fc portion of human IgG1; recombinant erythropoietin receptor; not shown: Fc portion of human IgG1
T3 sequence (looked up): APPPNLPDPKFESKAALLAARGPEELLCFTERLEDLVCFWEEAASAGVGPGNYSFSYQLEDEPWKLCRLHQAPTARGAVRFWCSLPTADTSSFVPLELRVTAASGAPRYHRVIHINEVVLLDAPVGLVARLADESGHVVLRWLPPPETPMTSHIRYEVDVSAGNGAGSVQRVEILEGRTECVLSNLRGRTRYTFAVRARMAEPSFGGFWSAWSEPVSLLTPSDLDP
As to the kind of experiment: radioligand competition: displacement of 125I-EPO from recombinant human EPO R/Fc, Protein-G Sepharose pull-down. (Loss of bound radioactivity is the signal in a displacement assay; it reports binding, not function.)

In test [7] the target is T4, recombinant EPO-R produced in Chinese Hamster Ovary cells as a fusion protein to a portion of the human … (human, UniProt P19235 25-250).
T4 construct: In the assay it was held on protein A acceptor beads through antibody ab179
T4 sequence (looked up): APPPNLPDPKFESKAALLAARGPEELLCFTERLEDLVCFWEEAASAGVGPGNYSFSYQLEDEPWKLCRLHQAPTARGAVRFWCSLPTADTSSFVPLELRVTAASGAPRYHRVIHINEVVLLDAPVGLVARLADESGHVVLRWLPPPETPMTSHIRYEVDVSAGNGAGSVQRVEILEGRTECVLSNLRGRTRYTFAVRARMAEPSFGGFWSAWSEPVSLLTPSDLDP
Briefly: competitive binding; the column head says only 'IC50 (pM)', the text ties Table 2 to the AQ bead proximity assay with tracer SEQ ID NO: 4 as competitor.

By EC90 is commonly meant the concentration at which the effect reaches the 90% level. Low values mean greater potency, high ones weaker potency. By IC50 is commonly meant the point on the concentration scale where inhibition reaches its midpoint.

“PEGylated peptide dimer of (AcG)GLYACHMGPIT(1-nal)VCQPLR(MeG) (SEQ ID NO: 3), EPO-R agonist [Peptide II] (Ac-GGLYACHMGPIT[1Nal]VCQPLR[Sar]; disulfide 6-15 (inferred); also: homodimer, C-termini joined to a lysine linker, PEGylated)” yielded a 90% effect concentration (EC90) in test [1] of 2.2 nM.
Same read-out and setting: under “Peptide IV: PEGylated peptide dimer of (AcG)GLYACHMGPIT(1-nal)VCQPLRK (SEQ ID NO: 1), EPO-R agonist (Ac-GGLYACHMGPIT[1Nal]VCQPLRK; disulfide 6-15 (inferred); also: PEGylated peptide dimer)” stands 6.2 nM; under “PEGylated peptide dimer of (AcG)GLYACHMGPIT(1-nal)VCQPLR(MeG) (SEQ ID NO: 3), EPO-R agonist [Peptide III] (Ac-GGLYACHMGPIT[1Nal]VCQPLR[Sar]; disulfide 6-15 (inferred); also: homodimer, C-termini joined to a lysine linker, PEGylated)”, 2.7 nM.

B1: Peptide III (SEQ ID NO: 3) (peptide)
peptide: Ac-GGLYACHMGPIT[1Nal]VCQPLR[Sar]
modifications: disulfide 6-15 (inferred); also: C-termini joined to α- and ε-amines of a Lys linker carrying spacer and PEG
Regarding B1, the “Reporter EC50 (pM)” value in test [2] was 150 pM. For the same molecule, the “Proliferation EC50” value in test [3] was 72 nM.

B2: Peptide I (SEQ ID NO: 2) (peptide)
peptide: Ac-GGLYACHMGPIT[1Nal]VCQPLR[Sar]K
modifications: disulfide 6-15 (inferred); also: K21 ε-amine joined to branched tertiary amide linker bearing PEG
Turning to B2, in test [4], the “Reporter EC50 (pM)” value came out at 195 pM. Besides, in test [5], the “Proliferation EC50 (pM)” value was 165 pM. Besides, the 50% inhibitory concentration (IC50) in test [6] amounted to 0.111 nM.

B3: Peptide II (SEQ ID NO: 3) (peptide)
peptide: Ac-GGLYACHMGPIT[1Nal]VCQPLR[Sar]
modifications: disulfide 6-15 (inferred); also: C-termini joined to α- and ε-amines of a Lys linker carrying spacer and PEG
For B3, the IC50 in test [7] came to 0.11 nM.
